From publication PMC11490872, “Drug-resistant menin variants retain high binding affinity and interactions with MLL1” (The Journal of Biological Chemistry, 2024)
Like-named read-outs stand apart in the source and are kept apart here.

Columns and labels:
menin^G331R = target: T1, menin^G331R (Homo sapiens, UniProt O00255, G326R); test: ITC binding of MLL1 fragments to menin^G331R
T1 construct: The gene encoding full-length human menin was cloned into a pET32a expression vector; thioredoxin-His6 (cleaved yes); made in house; host or cells: E. coli BL21(DE3)
T1 sequence (O00255 1-610 G326R): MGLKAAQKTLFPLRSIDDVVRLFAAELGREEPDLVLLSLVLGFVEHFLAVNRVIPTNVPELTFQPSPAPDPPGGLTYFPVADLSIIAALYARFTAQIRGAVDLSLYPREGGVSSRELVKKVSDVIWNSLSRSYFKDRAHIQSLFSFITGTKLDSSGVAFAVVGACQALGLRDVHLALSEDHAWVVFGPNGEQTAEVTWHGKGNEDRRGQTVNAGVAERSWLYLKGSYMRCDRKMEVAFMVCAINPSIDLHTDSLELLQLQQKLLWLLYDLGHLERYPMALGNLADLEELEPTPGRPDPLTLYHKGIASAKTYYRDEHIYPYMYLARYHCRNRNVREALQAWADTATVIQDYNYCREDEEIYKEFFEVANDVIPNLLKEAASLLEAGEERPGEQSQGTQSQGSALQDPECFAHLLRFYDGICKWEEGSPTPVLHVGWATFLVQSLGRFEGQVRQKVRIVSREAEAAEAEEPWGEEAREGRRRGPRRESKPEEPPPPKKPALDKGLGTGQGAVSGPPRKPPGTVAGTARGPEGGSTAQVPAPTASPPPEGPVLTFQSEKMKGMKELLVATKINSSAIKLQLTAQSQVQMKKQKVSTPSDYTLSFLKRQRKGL
Protocol: (§1) Menin and MLL1 fragments were dialyzed at 4 °C against a 50 mM sodium phosphate pH 7.5, 50 mM NaCl, 1 mM TCEP buffer, and degassed prior to measurement. The titrations were performed using the VP-ITC system (MicroCal) at 25 °C. The calorimetric cell, which contained menin (concentrations in the 5–10 μM range), was titrated with the MLL1^160 and MLL1^4-15 derived peptides (concentration range 40–100 μM) injected in 10-μL aliquots. Data was analyzed using Origin 7.0 (OriginLab) to obtain Kd, stoichiometry, entropy, and enthalpy ([2]). Experiments with WT, M327I, T349M, and G331R menin and MLL1^160 or MLL1^4-15 were run in duplicate. Experiments with G331D menin and MLL1^160 were run in duplicate while experiments with G331D and MLL1^4-15 were run in quadruplicate.

menin^M327I = target: T2, menin^M327I (Homo sapiens, UniProt O00255, M322I); test: ITC binding of MLL1 fragments to menin^M327I
T2 construct: The gene encoding full-length human menin was cloned into a pET32a expression vector; thioredoxin-His6 (cleaved yes); made in house; host or cells: E. coli BL21(DE3)
T2 sequence (O00255 1-610 M322I): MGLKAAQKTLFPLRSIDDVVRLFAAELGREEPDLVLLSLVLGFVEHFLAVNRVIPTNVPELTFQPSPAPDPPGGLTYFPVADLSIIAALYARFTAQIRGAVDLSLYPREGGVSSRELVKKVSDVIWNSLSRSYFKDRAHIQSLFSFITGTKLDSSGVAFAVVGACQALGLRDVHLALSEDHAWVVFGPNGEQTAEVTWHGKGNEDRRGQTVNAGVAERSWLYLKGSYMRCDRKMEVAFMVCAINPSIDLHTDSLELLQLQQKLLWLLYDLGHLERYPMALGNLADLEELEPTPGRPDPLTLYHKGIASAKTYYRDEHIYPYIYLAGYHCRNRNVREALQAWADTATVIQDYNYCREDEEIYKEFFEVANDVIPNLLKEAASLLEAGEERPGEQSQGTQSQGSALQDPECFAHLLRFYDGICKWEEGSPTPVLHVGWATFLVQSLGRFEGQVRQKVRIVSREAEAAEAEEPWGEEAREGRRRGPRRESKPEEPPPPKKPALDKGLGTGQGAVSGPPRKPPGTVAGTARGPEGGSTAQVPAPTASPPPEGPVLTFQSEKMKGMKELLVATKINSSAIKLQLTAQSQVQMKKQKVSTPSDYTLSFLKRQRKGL
Protocol: as §1

menin^T349M = target: T3, menin^T349M (Homo sapiens, UniProt O00255, T344M); test: ITC binding of MLL1 fragments to menin^T349M
T3 construct: The gene encoding full-length human menin was cloned into a pET32a expression vector; thioredoxin-His6 (cleaved yes); made in house; host or cells: E. coli BL21(DE3)
T3 sequence (O00255 1-610 T344M): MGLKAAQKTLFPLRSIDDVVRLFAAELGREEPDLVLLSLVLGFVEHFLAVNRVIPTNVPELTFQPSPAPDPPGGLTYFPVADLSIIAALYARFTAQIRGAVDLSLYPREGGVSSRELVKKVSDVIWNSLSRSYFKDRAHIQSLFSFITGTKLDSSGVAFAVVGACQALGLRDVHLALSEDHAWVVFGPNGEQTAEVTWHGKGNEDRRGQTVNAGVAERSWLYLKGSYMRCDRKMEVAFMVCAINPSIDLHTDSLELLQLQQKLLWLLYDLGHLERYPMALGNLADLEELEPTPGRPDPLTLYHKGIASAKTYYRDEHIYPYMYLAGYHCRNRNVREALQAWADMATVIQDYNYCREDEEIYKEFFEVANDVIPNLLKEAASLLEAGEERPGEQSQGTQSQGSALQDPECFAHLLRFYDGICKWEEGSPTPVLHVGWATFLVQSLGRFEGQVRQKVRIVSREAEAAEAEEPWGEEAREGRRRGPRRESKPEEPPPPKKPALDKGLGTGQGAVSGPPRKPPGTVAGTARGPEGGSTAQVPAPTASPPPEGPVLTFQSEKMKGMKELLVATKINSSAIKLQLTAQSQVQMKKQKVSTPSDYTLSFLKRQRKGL
Protocol: as §1

[1] = ITC, representative binding isotherm Fig. 1A, 25 °C, read-out: Kd

B1: MLL1^160: N-terminal 160 amino acids of human MLL1, Cys2 mutated to alanine, recombinant (protein)
chain: MAHSARWRFPARPGTTGGGGGGGRRGLGGAPRQRVPALLLPPGPPVGGGGPGAPPSPPAVAAAAAAAGSSGAGVPGGAAAASAASSSSASSSSSSSSSASSGPALLRVGPGFDAALQVSAAIGTNLRRFRAVFGESGGGGGSGEDEQFLGFGSDEEVRVR
modifications: The printed 'Cys2' is the single N-terminal cysteine, Cys5 in the entry (peptide S4-A5-R6); Trx-His6 tag cleaved
Kd (menin^G331R; ITC summary Fig. 1B, values marked *, n = 2, read-out: G331R Kd (nM), ITC): 1.3 ± 0.3 nM | Kd (menin^G331R; [1]): 1.1 ± 0.3 nM | Kd (menin^M327I; ITC summary Fig. 1B, values marked *, n = 2, read-out: M327I Kd (nM), ITC): 2.2 ± 0.6 nM | Kd (menin^M327I; [1]): 2.2 ± 0.6 nM | Kd (menin^T349M; ITC summary Fig. 1B, values marked *, n = 2, read-out: T349M Kd (nM), ITC): 2.6 ± 0.7 nM | Kd (menin^T349M; [1]): 2.6 ± 0.7 nM
